Source: patent CN111718416A

Molecular target: 硫氧还蛋白(Thioredoxin，Trx)
Experiment: indirect ELISA, Trx coated at 3 μg/ml, supernatant of transiently transfected CHO cells diluted 1000-fold, goat anti-mouse HRP

硫氧还蛋白(Thioredoxin，Trx), sequence (P0AA25 2-109): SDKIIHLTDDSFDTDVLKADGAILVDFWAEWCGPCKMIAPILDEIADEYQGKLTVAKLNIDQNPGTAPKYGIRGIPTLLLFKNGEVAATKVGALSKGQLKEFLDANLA

B1: 实施例4的硫氧还蛋白的单克隆抗体(WT) (antibody, mouse IgG1, kappa, V domains shown)
VH: EVKLEESGGGLVQPGGSMKLSCAASGFTFSDGWMDWVRQSPEKGLEWVAELRNDAHNHRTYYAESLKGRFTISRDDSQSNVFLQMNSLRAEDTGIYYCTKRVPEGTGSWFAYWGQGTLVTVSA
VL: DIVMTQSPSSLGMSVGQKVTMSCKSSQSILNSINQKNYLAWYQQRPGQSPKLLVYFGSTRDSGVPDRFIGSGSGTDFTLTISSLQAEDLADYFCQQNYTTPPTFGGGTKLEIKR
With B1 the OD (450nm, 参考630nm) was > 1 OD.
